Measured values reported in the supplement of paper PMC9112550, “Optimization of the antimicrobial peptide Bac7 by deep mutational scanning” (BMC Biology, 2022).

Each sequence was assayed on Escherichia coli TOP10 (assay: shrunken log2 fold change of peptide-encoding DNA abundance (4.5 h post-induction vs induction); higher = less antimicrobial activity (less host growth inhibition)). Settings: time post-induction: 4.5 h; library: site-saturation at positions 5, 18, 19, 20.
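Further: peptides expressed intracellularly from a pBAD plasmid library in pooled LB shake-flask culture, induced with 0.3% L-arabinose, DNA abundance read by NGS, three biological replicates, DESeq2 with apeglm shrinkage.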

| Sequence | shrunken log2 fold change |
| --- | --- |
| RRIRTRPPRLPRPRPRPNTGPRP | -0.388 |
| RRIRARPPRLPRPRPRPQMAPRP | 0.274 |
| RRIRYRPPRLPRPRPRPFSGPRP | 0.0211 |
| RRIRHRPPRLPRPRPRPNEAPRP | 0.0232 |
| RRIRTRPPRLPRPRPRPSTYPRP | -0.4 |
| RRIRQRPPRLPRPRPRPFDIPRP | -0.16 |
| RRIRYRPPRLPRPRPRPRQHPRP | -0.571 |
| RRIRMRPPRLPRPRPRPSLNPRP | -0.0544 |
| RRIRVRPPRLPRPRPRPKNYPRP | -0.359 |
| RRIRQRPPRLPRPRPRPFQYPRP | -0.306 |
| RRIRGRPPRLPRPRPRPRDYPRP | 0.258 |
| RRIRRRPPRLPRPRPRPKHGPRP | -0.0664 |
| RRIRSRPPRLPRPRPRPNCFPRP | 0.0876 |
| RRIRPRPPRLPRPRPRPMITPRP | -0.407 |
| RRIRTRPPRLPRPRPRPSHQPRP | 0.185 |
| RRIRMRPPRLPRPRPRPTCTPRP | 0.963 |
| RRIRNRPPRLPRPRPRPKTFPRP | -0.399 |
| RRIRKRPPRLPRPRPRPMNFPRP | 0.18 |
| RRIRQRPPRLPRPRPRPDIAPRP | 0.111 |
| RRIRVRPPRLPRPRPRPHHDPRP | -0.37 |
| RRIRARPPRLPRPRPRPMFYPRP | -0.282 |
| RRIRMRPPRLPRPRPRPMFQPRP | -0.228 |
| RRIRPRPPRLPRPRPRPEDMPRP | -0.927 |
| RRIRFRPPRLPRPRPRPYRWPRP | -0.0143 |
| RRIRIRPPRLPRPRPRPCCKPRP | -0.398 |

| Sequence | shrunken log2 fold change |
| --- | --- |
| RRIRWRPPRLPRPRPRPRYTPRP | -0.25 |
| RRIRQRPPRLPRPRPRPLCDPRP | -0.131 |
| RRIRVRPPRLPRPRPRPWMEPRP | -0.124 |
| RRIRLRPPRLPRPRPRPYTDPRP | -0.348 |
| RRIRTRPPRLPRPRPRPTVLPRP | -0.0554 |
| RRIRCRPPRLPRPRPRPDTCPRP | -0.0965 |
| RRIRNRPPRLPRPRPRPTVIPRP | 0.0591 |
| RRIRWRPPRLPRPRPRPDGQPRP | -0.000921 |
| RRIRIRPPRLPRPRPRPEDIPRP | -0.407 |
| RRIRNRPPRLPRPRPRPQPAPRP | 0.0618 |
| RRIRHRPPRLPRPRPRPHVQPRP | -0.128 |
| RRIRARPPRLPRPRPRPNANPRP | 0.49 |
| RRIRIRPPRLPRPRPRPGFNPRP | -0.135 |
| RRIRERPPRLPRPRPRPNENPRP | -0.111 |
| RRIRPRPPRLPRPRPRPCEAPRP | 0.0756 |
| RRIRFRPPRLPRPRPRPIMMPRP | -0.529 |
| RRIRMRPPRLPRPRPRPTMPPRP | 0.174 |
| RRIRIRPPRLPRPRPRPCCMPRP | -0.614 |
| RRIRRRPPRLPRPRPRPDGIPRP | 0.282 |
| RRIRMRPPRLPRPRPRPKLDPRP | 1.7 |
| RRIRIRPPRLPRPRPRPSYFPRP | -0.83 |
| RRIRVRPPRLPRPRPRPAHMPRP | -0.103 |
| RRIRSRPPRLPRPRPRPVMVPRP | -0.31 |
| RRIRIRPPRLPRPRPRPNWKPRP | -0.00224 |
| RRIRHRPPRLPRPRPRPTEVPRP | -0.0182 |

| Sequence | shrunken log2 fold change |
| --- | --- |
| RRIRTRPPRLPRPRPRPQFWPRP | -0.00273 |
| RRIRYRPPRLPRPRPRPMSHPRP | -0.425 |
| RRIRNRPPRLPRPRPRPLRTPRP | 0.717 |
| RRIRRRPPRLPRPRPRPVNVPRP | -0.0902 |
| RRIRDRPPRLPRPRPRPEILPRP | -0.101 |
| RRIRFRPPRLPRPRPRPGKQPRP | 0.0463 |
| RRIRIRPPRLPRPRPRPQCPPRP | -0.472 |
| RRIRRRPPRLPRPRPRPSMYPRP | -0.345 |
| RRIRMRPPRLPRPRPRPEVYPRP | -0.0346 |
| RRIRLRPPRLPRPRPRPDFSPRP | 0.177 |
| RRIRVRPPRLPRPRPRPRWNPRP | 0.132 |
| RRIRTRPPRLPRPRPRPCFLPRP | -0.535 |
| RRIRIRPPRLPRPRPRPPHSPRP | -0.164 |
| RRIRARPPRLPRPRPRPCLLPRP | 0.0509 |
| RRIRERPPRLPRPRPRPKWIPRP | -0.54 |
| RRIRRRPPRLPRPRPRPTHFPRP | 1.01 |
| RRIRLRPPRLPRPRPRPEIMPRP | -0.00809 |
| RRIRYRPPRLPRPRPRPNHQPRP | -0.573 |
| RRIRSRPPRLPRPRPRPPEGPRP | 0.704 |
| RRIRRRPPRLPRPRPRPRAKPRP | 0.203 |
| RRIRGRPPRLPRPRPRPWAVPRP | -0.142 |
| RRIRERPPRLPRPRPRPPQSPRP | 0.0516 |
| RRIRRRPPRLPRPRPRPIFQPRP | 0.303 |
| RRIRGRPPRLPRPRPRPGNTPRP | 0.171 |
| RRIRPRPPRLPRPRPRPVNGPRP | 0.0391 |

| Sequence | shrunken log2 fold change |
| --- | --- |
| RRIRYRPPRLPRPRPRPVIPPRP | -0.0128 |
| RRIRERPPRLPRPRPRPHFRPRP | -0.624 |
| RRIRSRPPRLPRPRPRPYYTPRP | -0.576 |
| RRIRSRPPRLPRPRPRPESLPRP | 0.0154 |
| RRIRTRPPRLPRPRPRPGEVPRP | 0.211 |
| RRIRRRPPRLPRPRPRPMARPRP | 0.0728 |
| RRIRARPPRLPRPRPRPAVQPRP | -0.0122 |
| RRIRTRPPRLPRPRPRPKEVPRP | -0.0117 |
| RRIRWRPPRLPRPRPRPCQSPRP | -0.098 |
| RRIRIRPPRLPRPRPRPWYFPRP | -0.19 |
| RRIRERPPRLPRPRPRPTGNPRP | -0.267 |
| RRIRRRPPRLPRPRPRPQSAPRP | 0.123 |
| RRIRDRPPRLPRPRPRPQQGPRP | -0.00207 |
| RRIRLRPPRLPRPRPRPEHEPRP | 0.13 |
| RRIRHRPPRLPRPRPRPYCQPRP | -0.746 |
| RRIRLRPPRLPRPRPRPCPTPRP | 0.0726 |
| RRIRFRPPRLPRPRPRPLISPRP | -0.178 |
| RRIRSRPPRLPRPRPRPWAMPRP | 0.0981 |
| RRIRWRPPRLPRPRPRPEYLPRP | -0.0854 |
| RRIRVRPPRLPRPRPRPRNTPRP | -0.365 |
| RRIRKRPPRLPRPRPRPKGMPRP | -0.00227 |
| RRIRKRPPRLPRPRPRPRLNPRP | 0.489 |
| RRIRHRPPRLPRPRPRPPGFPRP | 0.011 |
| RRIRCRPPRLPRPRPRPLERPRP | -0.199 |
| RRIRARPPRLPRPRPRPCWDPRP | -0.102 |

| Sequence | shrunken log2 fold change |
| --- | --- |
| RRIRHRPPRLPRPRPRPMIFPRP | -0.251 |
| RRIRCRPPRLPRPRPRPWIIPRP | -0.577 |
| RRIRVRPPRLPRPRPRPEMWPRP | 0.0217 |
| RRIRGRPPRLPRPRPRPRVPPRP | 0.356 |
| RRIRPRPPRLPRPRPRPAMTPRP | -0.085 |
| RRIRYRPPRLPRPRPRPNPQPRP | -0.0909 |
| RRIRFRPPRLPRPRPRPPMIPRP | -0.224 |
| RRIRHRPPRLPRPRPRPKTEPRP | -0.0292 |
| RRIRMRPPRLPRPRPRPPDYPRP | 0.345 |
| RRIRPRPPRLPRPRPRPFQWPRP | -0.0697 |
| RRIRDRPPRLPRPRPRPTVKPRP | -0.043 |
| RRIRNRPPRLPRPRPRPSVKPRP | -0.195 |
| RRIRGRPPRLPRPRPRPVHFPRP | 0.562 |
| RRIRYRPPRLPRPRPRPQYVPRP | -0.0294 |
| RRIRLRPPRLPRPRPRPLMWPRP | 0.115 |
| RRIRARPPRLPRPRPRPMTRPRP | 0.849 |
| RRIRMRPPRLPRPRPRPNYVPRP | -0.536 |
| RRIRKRPPRLPRPRPRPQICPRP | -0.0742 |
| RRIRMRPPRLPRPRPRPRLDPRP | 0.897 |
| RRIRCRPPRLPRPRPRPKDGPRP | 0.408 |
| RRIRVRPPRLPRPRPRPDNFPRP | 0.0216 |
| RRIRKRPPRLPRPRPRPIWPPRP | 0.345 |
| RRIRLRPPRLPRPRPRPCWEPRP | -0.197 |
| RRIRFRPPRLPRPRPRPGSDPRP | -0.111 |
| RRIRERPPRLPRPRPRPHMQPRP | -0.551 |

| Sequence | shrunken log2 fold change |
| --- | --- |
| RRIRHRPPRLPRPRPRPQNNPRP | -0.731 |
| RRIRHRPPRLPRPRPRPFVVPRP | -0.16 |
| RRIRNRPPRLPRPRPRPPDAPRP | 0.0157 |
| RRIRNRPPRLPRPRPRPCRFPRP | -0.0153 |
| RRIRWRPPRLPRPRPRPNAMPRP | 0.123 |
| RRIRVRPPRLPRPRPRPQAPPRP | 0.167 |
| RRIRGRPPRLPRPRPRPNDMPRP | -0.0212 |
| RRIRGRPPRLPRPRPRPCCSPRP | 0.107 |
| RRIRGRPPRLPRPRPRPYHQPRP | -0.101 |
| RRIRRRPPRLPRPRPRPKDTPRP | 0.0485 |
| RRIRQRPPRLPRPRPRPSMNPRP | -0.568 |
| RRIRRRPPRLPRPRPRPEFMPRP | 0.377 |
| RRIRERPPRLPRPRPRPADYPRP | -0.379 |
| RRIRSRPPRLPRPRPRPLVSPRP | 0.208 |
| RRIRYRPPRLPRPRPRPANMPRP | -0.683 |
| RRIRMRPPRLPRPRPRPEETPRP | 0.0205 |
| RRIRGRPPRLPRPRPRPYLFPRP | -0.0066 |
| RRIRGRPPRLPRPRPRPWDHPRP | 0.0661 |
| RRIRSRPPRLPRPRPRPGPIPRP | 0.298 |
| RRIRIRPPRLPRPRPRPQMDPRP | -0.258 |
| RRIRARPPRLPRPRPRPATKPRP | 0.531 |
| RRIRIRPPRLPRPRPRPFMQPRP | -0.91 |
| RRIRNRPPRLPRPRPRPKADPRP | -0.0273 |
| RRIRIRPPRLPRPRPRPCANPRP | -0.234 |
| RRIRCRPPRLPRPRPRPHMSPRP | -0.193 |
